Laboratory results taken from the DeepSol protein solubility set.

experiment: soluble on expression in E. coli; label from the status in PepcDB or PDB records

Row | Sequence | soluble on expression in E. coli
1 | MSFLNNDFGSPPATSSPPTTMPKLPTIQDMLNNIGASTVNLMQPNPYLMQNQIPLPVPNLPLNPFLHLNPAISQEIIQQFIAMSFNTPNVLASIANMGDDEGPSCNPKMRRGDLLKSVSMDSTEDPPSITLDNNGDMIVPNNDKEGWCRNKKYIEQTENGYMCTVCRKVYGRYNSVSYHVTIYHRNPPIKCNVPNCQFTTREARYIHFHKNYRHGIPLPESIDQGSRKCPHCRHVSKSPAMLEKHIRRHQIKDGLSNINEAIRERTSTICDEAMEIEPAETEVDPIETKPRSCTL | not soluble
2 | MSFRGTVKWFSKDKGYGFITREDTNADVFVHFTDIQMEGFKTLQKGQKVEFDVVEDTKGPRAKNVRVLGE | soluble
3 | MSFSLEMPQMLPAPRDCYAVPGKPGHSEPLTVVGWEHMDLKLFYPSALFSSWSIRTALYPLAVLRSQLQLQKQNTVYRSTFHAYSDISKREGFRGLYRGFWITVPQIGCSFIYSTIFEKCRAVLHEQGIQSVGGVAAVAGGLASFATQSIFVPTDIIAQYMMIYKNTDKLTAGHDKSVIDGVRNHVKNGSGLGTSVIKAIYKTDGILGFYRGFWASTAVYVPQMLTFWPSYYWMLGLFNKVPYRTLHPATNRSLLFDQAVAATLGGVISTVATNPMELFRVRLQVHRGSYSKTLETMLRDEKTAVFTKGLTPRIIANSMYSGLVVVGYEIVKRLCAKEEYKHRVKW | not soluble
4 | MSGAESYRHITVLLNEAVDALAVREDGVYVDGTFGRGGHSRLILSRLGDAGRLIVFDKDPQAIAVAEELARSDKRVGVVHGGFASFQTALDGLGIGKVDGALFDLGISSPQIDDGSRGFSFRFDAPLDMRMDTTRGMSAAEWIAVASEQDLHEVIKNYGEERFSRQIARAIVAQRAESPIDTTRKLAQIVAQNVRTRERGQDPATRTFQAIRIFINRELEEVGAVLPQVMCRLKEGGRLAVIAFHSLEDRIVKQFVKKYSQHAPLPRWAAVREADLPEPPLKIAGRALKPGEAEIAANPRARSAVLRVAERTAGPIPEQSQRKTSEWQLEHHHHHH | not soluble
5 | MSGATEMAVSPDGKEVAFILRGDVYVTSVEYKTTKQVTNTPCQERGIDFAPDGRTLVYASERGGLWQLYTSTIVRKDEKQFTYATELKEERLTNSDIASFNPKYSPDGKEIAFLENRTAIRVINLKTKKVRTVMDAQYQYSYSDGDQWFEWSPDSKWILSEFIGIGGWNNKDIVLLNADGKGEMHNLTESGYSDGNAKWVLGGKAMVWFSDRAGYRSHGSWGAQYDAYIMFFDVDALEHHHHHH | not soluble
6 | MSGCPFAGNSVGYTLKNVSMEDNEEDRAQTGVNRASKGGLIYGNYLQLEKILNAQELQSEVKGNKIHDEHLFIITHQAYELWFKQILWELDSVREIFQNGHVRDERNMLKVIARMHRVVVIFKLLVQQFSVLETMTALDFNDFREYLSPASGFQSLQFRLLENKIGVLQSLRVPYNRKHYRDNFGGDYNELLLKSEQEQTLLQLVEAWLERTPGLEPNGFNFWGKFEKNILKGLEEEFLRIQAKTDSEEKEEQMAEFRKQKEVLLCLFDEKRHDYLLSKGERRLSYRALQGALMIYFYREEPRFQVPFQLLTSLMDIDTLMTKWRYNHVCMVHRMLGTKAGTGGSSGYHYLRSTVSDRYKVFVDLFNLSTYLVPRHWVPKMNPIIHKFLYTAEYSDSSYFSSDESD | soluble
7 | MSGDFDTIRDASSPDEVQLVRLLEEKIKSLQIEIENLRKELNYYKAEMEKMLSPPLIEAVVLDVLPDGRVLVRSSSGPNLVVNIASHIDQKLIKPGISVALNQRGSTILEVLPQKE | soluble
8 | MSGGQQERHVLILNTVGGRRAIALEAAAYSLGRDESNAIVIDFETVSRQHAILLRVPVPGTTSYRYRLVDGNANGKPSTNGTFVNGKRISSHELQHGDVILFGRKAKASYLLLSMADTEFSQYLQSIAFQSIKSDLRGAKETLVGMELSGELRRTPNRELVAAGATQLHPELEHHHHHH | soluble
9 | MSGIKPSVSKGESQAPQTRQLEASKPTVQGIIDILHDTISYVQVEKQSKTINFSIPHLQMIKEQLESIQLKDKNYKDLEKKFNEKQDEHLETIQKLDSTLSRQKLKYDDMRQALSVKIYTLENECSNLQDNYADLQNDFEVQIEKFKKLQNLKSIQNHENSKNVNPLTLDELTEQLKQFKEELSIDQKLKNIQLTCEGLQSAVGNFEMNSKKAKEIEILKMDIKKTQELYESRLLRAAQENKKLLRKNDTLKNYLDNQTAKIGELTAGNKTENRSPTPTLQGLIEILQKFSDDQKLEPECKMLQLHKEECRLILESLEVHDKKDQEIQWFQRQINDQKKRIANLGWSYENALEDKDALELKLEHQYEQMMELKKNFIPKNEISEDLAKTVRNFGKRLRNSRGNLKNAFKELEALKEVQEEEGSSDESSESSASDDLPDGDSSSEE | not soluble
